What was measured:
[1] = system: isolated C. elegans mitochondria; assay: Mitochondrial O2 consumption (Clark-type electrode); type: biochemical, Caenorhabditis elegans; details: isolated mitochondria fueled with substrates, mtON activated
Description: O2 consumption was measured using a Clark-type O2 electrode (S1 electrode disk, DW2/2 electrode chamber and Oxy-Lab control unit, Hansatech Instruments, Norfolk UK) at 25° C. Isolated mitochondria were stirred in MRB at 1 mg/ml with 1 mg/ml fat-free BSA. Substrates and inhibitors were added by syringe port (100 μM ADP, 2 μM rotenone, 5 mM succinate). Given excess succinate as substrate for ETC respiration, we measured the amount of O2 required to convert 50 nmol of ADP to ATP and established a baseline for comparison. To test mtON activity, mitochondria were illuminated as in the ATP measurement, for 1, 5, or 10 min in the presence of ADP without succinate to allow for mtON conversion of ADP to ATP. Any remaining ADP was then converted using 02-dependent ETC respiration upon succinate addition. Slopes were calculated from plots of O2 concentration versus time to give rates of 02 consumption during ADP respiration, ADP+succinate respiration, and respiration after ADP had been entirely consumed. The intersections of these three rates were used to calculate total amount of O2 consumed during ADP+succinate respiration. Light activation of mitochondria (XCite LED, 0.02 mW/mm^2) during ADP respiration alone was carried out for differing lengths of time to test the ability of mtON to drive ADP consumption before succinate was added. […]

C. elegans [2] = assay: Locomotion assay (body bends); type: in vivo, Caenorhabditis elegans; details: mtON activation
Description: […] One body bend was scored as a deflection of direction of motion of the posterior pharyngeal bulb. For AMPK activation, animals were placed on plates containing 1 mM AICAR 4 h before counting body bends. AICAR was dissolved in M9 buffer, added directly onto OP50 seeded plates, and allowed to dry. Illumination was continuous through measurements (MVX, 0.265 mW/mm^2).

C. elegans [3] = assay: Lifespan of mtON-expressing worms; type: in vivo, Caenorhabditis elegans
Description: Light treatment began at day 1 of adulthood for all experiments, a, Survival curves of mtON-expressing animals (extrachromosomal array). […] One-way ANOVA with Tukey's test; n=30 animals for day 4 conditions and 40 animals for day 10. […] The dotted arrow represents the molecular mechanisms to be investigated that link Δψm to aged physiology.
A) survival curve with the same conditions as FIG. 15B, but with light intensity (0.005 mW/cm2) below the threshold for mtON activation (0.01 mW/cm2). […] B) Survival curves of mtON-expressing animals versus mtON-expressing animals in a long-lived genetic background containing a constitutively active AMPK mutation.
Strain APW32 expresses mtON as an extrachromosomal array (mtON ext. chr. array), and strain APW273 expresses mtON in single copy through CRISPR/Cas9 genome integration (mtON CRISPR). See methods section for genotype details. Light intensity was varied to maintain temperature as best as possible, and proximal temperature readings directly adjacent to assay plates are reported to show local temperature variability from different incubators and from different light sources. All incubators were set to 20° C.

B1: mtON: fusion of the 187 N-terminal amino acids of mouse IMMT1 to the light-activated proton pump (Mac) from Leptosphaeria maculans (protein)
chain: MLRACQLSGVTVAAQSCLCGKFVLRPLRPCRRYSTSSSSGLTAGKIAGAGLLFVGGGIGGTILYAKWDSHFRESVEKTIPYSDKLFGMVLGSAPYTVPLPKKPVQSGPLKISSVSEVMKDSKLPVAQSQKTKGDTPASAASTGAAQIISAAGDTLSVPAPAVQHEDTIKTECPNTNEGKSTSETTEEPAGLIVDQFEEVLMKTSQLFPLPTATQSAQPTHVAPVPTVLPDTPIYETVGDSGSKTLWVVFVLMLIASAAFTALSWKIPVNRRLYHVITTIITLTAALSYFAMATGHGVALNKIVIRTQHDHVPDTYETVYRQVYYARYIDWAITTPLLLLDLGLLAGMSGAHIFMAIVADLIMVLTGLFAAFGSEGTPQKWGWYTIACIAYIFVVWHLVLNGGANARVKGEKLRSFFVAIGAYTLILWTAYPIVWGLADGARKIGVDGEIIAYAVLDVLAKGVFGAWLLVTHANLRESDVELNGFWANGLNREGAIRIGEDDGAR
modifications: Synthetic Complete mtON fusion protein sequence
In the case of B1, the “oxygen needed to make ATP” value [1] is reported as “decreased reliance on oxygen to make ATP”, the locomotion off food (C. elegans [2]; animals off food) is reported as “suppressing their movement” and the “locomotion speed (body bends per minute)” value (C. elegans [2]; complex I mutant background (gas-1), in presence of food) is reported as “rescued the decreased locomotion”. The lifespan (C. elegans [3]; CRISPR insertion, vs light control) was “significantly extended lifespan compared to the light control”, the lifespan (C. elegans [3]; extrachromosomal array, +ATR+light from day 1 of adulthood) was “significantly extended lifespan” and the “light intensity threshold for mtON activation” value (C. elegans [3]; in vivo) was 0.01 mW/cm2. For the same molecule, the lifespan (C. elegans [3]; light below the threshold to activate mtON (0.005 mW/cm2)) was “not extended”, the lifespan (C. elegans [3]; long-lived worms with constitutively active AMPK signaling) was “further increased lifespan” and the “lifespan extension in presence of FCCP” value (C. elegans [3]; mtON activation plus mitochondrial uncoupler FCCP) was “sensitive”. The lifespan (C. elegans [3]; mtON activation throughout life vs control populations) was “significant increase in lifespan”.
